According to US20250002562A1 (Scripps Research, published 2025):
Where a chain is given by its changes, count along the chain named.

B1: SKAI-DS1 (antibody, V domains shown)
VH: EVQLLESGGGLVQTGGSLRLSCAASGFTFSDYAMSWVRQAPGKGLEWVSWIYSNDGNKYYADSVKGRFTISRDNSKNTLYLQMNSLRAEDTAVYYCARFPVPSWRNTWSSYDAMDVWGQGTLVTV
VL: QSVLTQPPSASGTPGRRVTISCTGSSSNIGSNYVSWYQQLPGTAPKLLIYSDSNRPSGVPDRFSGSKSGTSASLAISGLRSEDEADYYCGTWDASLSGYVFGGGTKLTVL
notes: also called SKAI-DS1 human IgG antibody
B2: SKAI-DS3 (antibody, V domains shown)
VH: EVQLLESGGGLVQPGGSLRLSCAASGFTFSDYSMSWVRQAPGKGLEWVSAISSDSSSTYYADSVKGRFTISRDNSENTLYLQMNSLRAEDTAVYYCAKAILRCIPLGCYYADAMDVWGQGTLVTV
VL: B1 VL with R16Q, Y33D, S35T, S51A, N54K, T91A, A94Y, G98A
notes: also called SKAI-DS3 human IgG antibody
B3: SKAI-DS66 (antibody, V domains shown)
VH: EVQLLESGGGLVQPGGSLRLSCAASGFTFSDYAMSWVRQAPGKGLEWVSAIYPGGGSTYYADSVKGRFTISRDNSKNTLYLQMNSLRAEDTAVYYCARNLFGFDYWGQGTLVTV
VL: B1 VL with R16Q, Y33A, S35Y, S51D, T91S, A94D, G98A
notes: also called SKAI-DS66 human IgG antibody
B4: SKAI-DS15 (antibody, V domains shown)
VH: EVQLLESGGGLVQPGGSLRLSCAASGFTFSDYDMSWVRQAPGKGLEWVSMIYSGSSSKYYADSVKGRFTISRDNSKNTLYLQMNSLRAEDTAVYYCARVTGTCHSGSCYYSDAMDVWGQGTLVTV
VL: B1 VL with R16Q, T23S, Y33D, S35N, S51D, T91A, A94D
notes: also called SKAI-DS15 human IgG antibody
B5: SKAI-DS64 (antibody, V domains shown)
VH: B3 VH with A33S, A50G, P53H, G54S, G55D, T58K, N99F, L100D, F101P, G102V
VL: QSVLTQPPSASGTPGQRVTISCSGSSSNIGSNAVSWYQQLPGTAPKLLIYDNNHRPSGVPDRFSGSKSGTSASLAISGLRSEDEADYYCGSWDDSLNAYVFGGGTKLTVL
notes: also called SKAI-DS64 human IgG antibody

Molecular target: SARS-CoV2 RBD antigen (Genscript) (SARS-CoV2, UniProt P0DTC2 319-541)
Assay: ELISA on RBD antigen, human IgG at 1 µg/mL, O.D. 450 nm

Row | Binder | binding result
1 | B1 | binds
2 | B2 | no binding (tested: 1 µg/mL)
3 | B3 | binds
4 | B4 | no binding (tested: 1 µg/mL)
5 | B5 | binds
